Test results as given in patent US7777010 (CRUCELL HOLLAND B V, dated 2010).

Tests used:
[1] = target: T1, purified recombinant Ep-CAM produced in insect cells (UniProt P16422 24-265, limits assumed); test: SPR (BIAcore), recombinant Ep-CAM coupled to CM5 chip, IgG1 in flow
T1 construct: Coupled to a CM5 sensor chip by NHS/EDC; Neither the species nor the construct limits are stated at this place
T1 sequence (looked up): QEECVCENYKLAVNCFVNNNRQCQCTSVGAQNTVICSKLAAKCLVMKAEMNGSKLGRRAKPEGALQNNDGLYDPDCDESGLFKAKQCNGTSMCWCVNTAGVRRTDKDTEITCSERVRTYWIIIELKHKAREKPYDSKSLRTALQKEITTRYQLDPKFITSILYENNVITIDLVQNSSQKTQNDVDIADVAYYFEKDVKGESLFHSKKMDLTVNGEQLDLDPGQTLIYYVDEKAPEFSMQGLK
Description: (§1) In separate BIAcore flow cells, approximately 160, 1565 and 4154 resonance units of purified recombinant Ep-CAM produced in insect cells (kindly provided by Dr. D. Herlyn, Wistar institute, Philadelphia, Pa.) (25 µg/ml) in 10 mM acetate buffer (pH 4.0) were coupled to a CM5 sensor chip using NHS/EDC coupling chemistry. Association and dissociation were measured under continuous flow of […] using a concentration range from 100 to 1 nM.
(§2) The kinetic association and dissociation rates of the original huMab UBS-54 and the mutant huMabs A37 and C52 were determined by surface plasmon resonance (Table 1). […] The improvement was mainly the result of a lower […].

[2] = target: T1, purified recombinant Ep-CAM produced in …; test: SPR (BIAcore), recombinant Ep-CAM coupled to CM5 chip
Description: as §1, §2

Row | Binder | Kd [1] | koff [1] | kon [1] | fold increase in affinity against the original huMab UBS-54 [2] | fold improvement of binding affinity against the original UBS-54 huMab [2]
1 | huMab UBS-54 (antibody, V domains shown, Tested as an intact human IgG1/kappa huMab made in BHK cells (VH1 / Vk2 V regions); FITC-labelled in the spheroid experiment; also called original huMab UBS-54; original UBS-54) VH: QVQLVQSGAEVKKPGSSVRVSCKASGGTFSSYAISWVRQAPGQGLEWMGGIIPIFGTANYAQKFQGRVTITADESTSTAYMELSSLRSEDTAVYYCARDPFLHYWGQGTLVT VL: not shown | 6 nM | 0.0006 s⁻¹ | 100000 M⁻¹ s⁻¹ | – | –
2 | huMab A37 (antibody, V domains shown, Tested as an intact human IgG1/kappa huMab made in BHK cells; It has the UBS-54 VH with a shuffled Vk3 light chain; also called mutant A37) VH: QVQLVQSGAEVKKPGSSVRVSCKASGGTFSSYAISWVRQAPGQGLEWMGGIIPIFGTANYAQKFQGRVTITADESTSTAYMELSSLRSEDTAVYYCARDPFLHYWGQGTLVT VL: EIELTQSPGTLSLSPGERATLSCRASQTISNNYLAWYQQKRGQAPRLLIYAASSRATGIPDRFSGTGSGTDFTLTISRLEPEDFAVYYCAQGELYPRQFGGGTKLEI | 1.6 nM | 0.00041 s⁻¹ | 250000 M⁻¹ s⁻¹ | ~4 fold | –
3 | huMab C52 (antibody, V domains shown, Tested as an intact human IgG1/kappa huMab made in BHK cells; It has the B43 VH with a DNA-shuffled A37-derived Vk light chain; FITC-labelled in the spheroid experiment; also called mutant C52) VH: QVQLVQSGAEVKKPGASVKVSCKASGGTFSSYAISWVRQAPGQGLEWMGGIVPIFGTANYAQKFQGRVTITADESTSTAYMELSSLRSEDTAVYYCARDPFLHYWGQGTLVT VL: EIELTQSPGTLSLSPGERATLSCRASQSVSSSYLAWYQQKPGQAPRLLIYGASSRATGIPDRFSGSGSGTDFTLTISRLEPEDFAVYYCAQGELYPRQFGGGTKLDI | 0.4 nM | 0.00011 s⁻¹ | 270000 M⁻¹ s⁻¹ | – | 15 fold
